B1: Flag-WHRN (wild type) [mouse] / Myc-USH2A (usherin, aa 4819-5193) [mouse] (parent complex)
chain 1: MNAQLDGLSVSSSSTGSLGSAAAAAGGGGGAGLRLLSANVRQLHQALTALLSEPEREQFTHCLNAYHARRNVFDLVRTLRVLLDSPVKRRLLPMLRLVIPRSDQLLFDQYTAEGLYLPATTPYRQPAWAAPDGAGPGEVRLVSLRRAKAHEGLGFSIRGGSEHGVGIYVSLVEPGSLAEKEGLRVGDQILRVNDKSLARVTHAEAVKALKGSKKLVLSVYSAGRIPGGYVTNHIYTWVDPQGRSTSPPSSLPQPHGSTLRQREDDRRSTLHLLQSGDEKKVNLVLGDGRSLGLTIRGGAEYGLGIYITGVDPGSEAESSGLKVGDQILEVNGRSFLNILHDEAVKLLKSSRHLILTVKDVGRLPHARTTVDQTKWIASSRIGESVANSAGFPGDHTEEGTSKPGFYKGPAGSQVTLSSLGNQTRALLDDQARHLLTEQERATMMYYLAQYRGGTISVEAMVMALFELLNTHAKFSLLSEVRSIISPQDLDRFDHLVLRREIESMKARQPPGPGVGDTYSMVSYSDTGSSTGSHGTSTTVSSARERLLWLIDLMENTLDLEGTGETTQGSTNALPDVSVDDVKSPSEDLPGIKPPPPPPPLAQGHDRLLGQPRKPGREDPAPLSSAAHSGIVFSAPRNRSPPPGTAPTPGPSSAQDSPSSPIYASISHANPSSRKPLDTHLALVNQHPIGPFPRVQSPPHLKSPPAETPGAGACLPPPSPSEHPDAVGANQHFVLVEVHRPDSEPDVNEVRALPQTRTASTLSQLSDSGQTLSEDSGVDAGETEASTSGRGRQTASAKNKNGKEQPRTERTAEGANKPPGLLEPTSTLVRVRKSAATLGIAIEGGANTRQPLPRIVTIQRGGSAHNCGQLKVGHVILEVNGQTLRGKEHKEAARIIAEAFKTKERDYIDFLVTEFNVML
chain 2: PPSGLSPPQVQTLGSRMASVHWTPPLLPNGVIHSYELQLQRACPPDSAPRCPPSHTERKYWGPGHRASLAGLQPNTAYGVQVVAYNEAGSTASGWTNFSTKKEMPQYQALFSVDSNASMVWVDWSGTFLLNGHLKEYVVTDGGRRVYSGLDTTLYIPRMVDKIFFFQVTCTTDIGSVKTPLVQYDAATGSGLVLTTPGEKKGAGTKSTEFYSELWFIMVMAVVGLILLAIFLSLILQRKIHKEPCIRERPPLVPLQKRMTPLSVYPPGETHVGLADTRLPRSGTPMSIRSSQSVSVLRIPSQSQLSHAYSQSSLHRSVSQLMDMADKKVVTEDSLWETIMGHSSGLYVDEEELMNAIKGFSSVTKEHTAFTDTHL

Variants of: B1
Assay: co-immunoprecipitation (band intensity quantified); HEK293 cells; n = 3; parent: 1; read off a plot

Ratio to parent, ~1:
chain 1 S37E
chain 1 S246E
chain 1 S384E
chain 1 S85E
chain 1 S156E

— article PMC10238197, “Deafness‐Associated ADGRV1 Mutation Impairs USH2A Stability through Improper Phosphorylation of WHRN and WDSUB1 Recruitment” (Advanced Science, 2023)
